Each block holds one binder with its values, some of them ahead of it.
Tests used:
[1] = molecular target: T1, full-length UVR8 (UV … LOCUS8) (Arabidopsis thaliana), Q9FN03; experiment: native MS; native ion mobility MS with nESI, sample in 250 mM ammonium acetate pH 6.8, 5–20 μM UVR8, in the absence of UV-B light; conditions: remark: other sources report otherwise
T1 chain: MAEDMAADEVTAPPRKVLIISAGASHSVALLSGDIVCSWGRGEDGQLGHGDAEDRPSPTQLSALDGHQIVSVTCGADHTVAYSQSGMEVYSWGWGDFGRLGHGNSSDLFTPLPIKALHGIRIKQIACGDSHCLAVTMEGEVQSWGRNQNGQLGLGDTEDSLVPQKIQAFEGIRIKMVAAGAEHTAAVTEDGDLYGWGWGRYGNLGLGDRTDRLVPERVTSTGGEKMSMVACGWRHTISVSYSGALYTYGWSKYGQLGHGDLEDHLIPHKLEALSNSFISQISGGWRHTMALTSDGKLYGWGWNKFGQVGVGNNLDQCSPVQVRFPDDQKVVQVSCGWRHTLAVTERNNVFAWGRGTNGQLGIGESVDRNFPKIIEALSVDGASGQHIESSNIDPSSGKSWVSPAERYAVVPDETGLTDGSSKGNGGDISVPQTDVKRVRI

[2] = molecular target: the molecule itself; experiment: as above

- stoichiometry N [1]: 2
B1: full-length UVR8 (UV … LOCUS8), Q9FN03 1-440 (natural protein)
chain: T1 chain

B2: UVR8 core domain (residues 12–381, UVR8^12–381) (domain or fragment, Arabidopsis thaliana, UniProt Q9FN03 12-381, looked up)
chain: APPRKVLIISAGASHSVALLSGDIVCSWGRGEDGQLGHGDAEDRPSPTQLSALDGHQIVSVTCGADHTVAYSQSGMEVYSWGWGDFGRLGHGNSSDLFTPLPIKALHGIRIKQIACGDSHCLAVTMEGEVQSWGRNQNGQLGLGDTEDSLVPQKIQAFEGIRIKMVAAGAEHTAAVTEDGDLYGWGWGRYGNLGLGDRTDRLVPERVTSTGGEKMSMVACGWRHTISVSYSGALYTYGWSKYGQLGHGDLEDHLIPHKLEALSNSFISQISGGWRHTMALTSDGKLYGWGWNKFGQVGVGNNLDQCSPVQVRFPDDQKVVQVSCGWRHTLAVTERNNVFAWGRGTNGQLGIGESVDRNFPKIIEALSVDG
notes: Homodimer in the dark, monomer after UV-B; also called truncated UVR8; source: E. coli Rosetta 2 (DE3) pLysS, purified (Ni-NTA, Strep-Tactin XT, cleaved from the resin with SUMO protease); not shown: 7xHis, N-terminal, cleaved; Strep II, N-terminal, cleaved; SUMO, N-terminal, cleaved
- stoichiometry N [2]: 2
